The values that follow are results of earlier work, collected in publication PMC4755228.

For orientation: Kd means a measure of binding affinity in units of concentration.

The target in the series is CD38 (Homo sapiens) (UniProt P28907). Description: BIAcore SPR. (In general: In SPR one partner is held on a chip, and binding of the other changes the refractive index at the surface.)

Consider daratumumab, for which the Kd is 4.36 nM.
